Test results from the DeepSol protein solubility set.

Experiment: soluble on expression in E. coli; label from the status in PepcDB or PDB records

Row | Sequence | soluble on expression in E. coli
1 | MGSDKIHHHHHHMTSTPHSPSEMFASIPGIFGFYPEESIVVLTLMHTKESCYQLGPVMRLDLKDLRYLSDIGDTLSAIEPDLVFGLIISGQKPEAIEDLRGLIEFVADCEIVPFDACWYTSAIESGGKYDAIWLNEAMTEAALEYQSWRKGRIPLIANTGITGEMIHAGHLPELSRKDIEKHYAQAEESEQWDEYLITERYAELFDDPSTSFRSAQECIDAFSQAVELMRTEKLITDAALTVAAFLKNKMSRDIIIECCVHNANTVKEALCYVSRHTKGFVRANALALYALCIVDSPWGNHITCVLQAAHNTLPFHHLTALVAEAYYRGLSGSIVDLVVSGSQEAQKHFGEATNVKSAV | not soluble
2 | MEYFDMRKMSVNLWRNAAGETREICTFPPAKRDFYWRASIASIAANGEFSLFPGMERIVTLLEGGEMLLESADRFNHTLKPFQPFAFAADQVVKAKLTAGQMSMDFNIMTRLDVCKAKVRIAERTFTTFGSRGGVVFVINGAWQLGDKLLTTDQGACWFDGRHTLRLLQPQGKLLFSEINWLAGHSPDQVQ | soluble
3 | MEFGASFAYRRIDAHVEATLQEAAQVLEKLVIERDAESAITVASQGTPDAISITQAAHETISIDSILRSSKQPKATIRTPRDSNKNRKLTFPPARIGFKSEQLETCDSGITDSTIDQDPPTPDSLFPSAIYIPAKQKPQMTVSISATTASSCSNKSLYRKHIEKLAIEPLEDIKHLKCRGLKKSKPDDLFPKATYDAGTGKPKMALSPSSMVSVDLSYASTTAKSNSLAYQPMEFVSSDGRVKLWLQPLEKQKKKNSEKSKKRERCIDDAPIPPKQLQSSTKLNIENRTKFSTNLSIGDHVIDLSGILNGSMKKKNLAKLVINGQSYSI | not soluble
4 | MGSDKIHHHHHHMIKALLTVSTILVSSHALATDKPADKPWHNEKPTLSTINAPTKVMPMVCKQTQALAYLKELQSGKKDIYSVKSNDHGGKGANDSGWLTWRVDDPTNLIPCPKGGAADTEVGMCWKELNDEPTVIGLVRVAPGTAAPHYHREMECYYGLSGQGLTWAQERMQPFGAGDYIEIPSKAIHYTPNTYDDQDLIYMYWFPLDGKFSTFKYQWPKDVGPGEQLMFDFVPYTNSKTVRSGNDGYGWDVIQKSKK | not soluble
5 | MNLGTLVSETRNPQTMDLDALPTPELVKRFNEQDTLVAEAVKATLPDVARAVDAAAAALKSGGRIIYMGAGTSGRLGVLDASECPPTFGVPHGLVVGLIAGGPGALLKAVEGAEDSQQAGEDDLVALNLQEQDLVVGLAASGRTPYVIGGLRYARQSGCTTVAVSCNPDSPIAREANIAISPVVGPEALTGSTRLKSGTAQKMVLNMISTGAMVKFGKVYQNLMVDMKATNVKLVDRACRMVVEATGIGREEAEALLKQTDFEVKPAILMALTGLDAAAAREKLAAHQGFLRAALEH | not soluble
6 | AVVATKVGATVMNANPFTLGHRYLIEQALAQCDHLHLFVVEEEASQFCYQERFALVQHGIADLSNITLHPSSQYIISRATFPDYFLKDSHIVDAAYLELDLRLFRQHIAPALAITHRFIGTEPFCPVTAEYNRKMHYWLQQAVMEADAINVVEIERKKVSNQAISASTVRQLFSERKWQQLLSMVPITTFNFLQKIANEP | not soluble
7 | AMGSVTVHSSEPEVRIPENNPVKLSCAYSGFSSPRVEWKFDQGDTTRLVCYNNKITASYEDRVTFLPTGITFKSVTREDTGTYTCMVSEEGGNSYGEVKVKLIVLVPPSKPTVNIPSSATIGNRAVLTCSEQDGSPPSEYTWFKDGIVMPTNPKSTRAFSNSSYVLNPTTGELVFDPLSASDTGEYSCEARNGYGTPMTSNAVRMEAVE | soluble
8 | MNVFNPAQFRAQFPALQDAGVYLDSAATALKPEAVVEATQQFYSLSAGNVHRSQFAEAQRLTARYEAAREKVAQLLNAPDDKTIVWTRGTTESINMVAQCYARPRLQPGDEIIVSVAEHHANLVPWLMVAQQTGAKVVKLPLNAQRLPDVDLLPELITPRSRILALGQMSNVTGGCPDLARAITFAHSAGMVVMVDGAQGAVHFPADVQQLDIDFYAFSGHKLYGPTGIGVLYGKSELLEAMSPWLGGGKMVHEVSFDGFTTQSAPWKLEAGTPNVAGVIGLSAALEWLADYDINQAESWSRSLATLAEDALAKRPGFRSFRCQDSSLLAFDFAGVHHSDMVTLLAEYGIALRAGQHCAQPLLAELGVTGTLRASFAPYNTKSDVDALVNAVDRALELLVD | soluble
9 | MGSDKIHHHHHHMLEIVAFRGDEYGLSARILADFLDEFRIHEMSPDNFNGKEEIENDFIIVCNPKLLTENFLRQAYEYSRDRGIYFGVISALSIDLLREKLANYQEQISLDPQQYLIILRKENKSIKHRLNAEVFTRYESTVDNFDRVKHKKLCLSMVIDGNRRHLHLSDGKICGINRDIPLEEIYRYFPDCQNCEYERVYAQDVQAECIFMDSCSSTLISTSEKGEYINVGMNFLKNAKVLISSYRPKQGYNSEALLFHHLISHGFEAGEVLYILNTNSYNHCSDYLPYILYGFPNAKVTIPEKLEVDRLRMGKSEIVLEIDRIAGMRLLEIHAGEDILNEVLKRQFYVFSSDEIRKDVFYSVIPYPLKNSIKLFLYSWEEVNGPLRIVFGVGKRLREDVYSKRYFNMRKLELLGFRHKKIQNQVHDYFSKINEQTEVLDEANRNLKNFDLHRLSKNLSAVEERIYNLLADHLLSQNPKFFIEVYGENMTVRCAEEDLHKTIRCPYCGNYLSIKESENTLVPMKRYSGFCSNCHNVFDTESVHPPKYPEIVLVHEQPDRKIFYVKVWNENAHTTNNLVCFNLWCENRSEMENIYLSRDFQVFTLEPGGEEKFEVEVALKRTDQRINKTYCLYVYWFEDFNLSVSTYTFRLKNV | not soluble
10 | MGSDKIHHHHHHMNTTNQTAPQGFRLNALGHAVPESQIKEIDKLRDELVLQIVTAAKEMQGHMATYKATSMRAVADFIDLSASEFGVKFGGTKGNVSLVSFDGKYKVQRSIGEHRVFDERIQAAKSKIDDCIKRWSVGSNDHIKALVELSFKVNKQGYIDINQVLSLRQLDIDDTDWRSAMDAIADSIQVMGSTPYLRVYERQDDGTYKQISLDIAKL | not soluble
11 | MAELQMLLEEEIPGGRRALFDSYTNLERVADYCENNYIQSADKQRALEETKAYTTQSLASVAYLINTLANNVLQMLDIQASQLRRMESSINHISQTVDIHKEKVARREIGILTTNKNTSRTHKIIAPANLERPVRYIRKPIDYTILDDIGHGVKVSTQNMKMGGLPRTTPPTQKPPSPPMSGKGTLGRHSPYRTLEPVRPPVVPNDYVPSPTRNMAPSQQSPVRTASVNQRNRTYSSSGSSGGSHPSSRSSSRENSGSGSVGVPIAVPTPSPPSVFPGHPVQFYSMNRPASRHTPPTIGGSLPYRRPPSITSQTSLQNQMNGGPFYSQNPVSLAPPPPSILQVTPQLPLMGFVARVQENISDTPPPPPPVEEPVFDESPPPPPPPEDYEEEEAAVVEYSDPYAEEDPPWAPRSYLEKVVAIYDYTKDKEDELSFQEGAIIYVIKKNDDGWYEGVMNGVTGLFPGNYVESIMHYSE | soluble
12 | MAHHHHHHMNDERVLFLTSSTCITICENQIGIDVLLKTDILHNAVILCESANPDLAFEALSIISKIAYAANHQQICILISCNVIKALKKILNNMKIKPGARARACNALGNIGCETASEVELLIKNDVFPLLVDIFQTDNDFNTKIEAAYAVCACLSKANQKQVGYIISCTATTNRLGQNICMQLIADMLELVSESDPMNNGSVKLCKSILRGLENILDKGDDETRDLSLWENPYVFMFKEVQGDIKLFQMQFFPEYYVVNKTYDILAKYFSLTSTWNNRK | not soluble
13 | LKPKILTASRKIKIKAGFTHNLEVDFIGAPDPTATWTVGDSGAALAPELLVDAKSSTTSIFFPSAKRADSGNYKLKVKNELGEDEAIFEVIVQ | soluble
14 | MKEKDLIRFMDRMIEERKAEYALGTAHIYQASRNALSAFLKAHDIPFKRVRPELLKQFERFLRRRGNSWNTVSTYMRVLRAVYNRAVDRRLAPHVPHLFKAVYTGTQADIKRALKAEEMGQLLDTKCTRKQSELLQKTHHLFVLMFLLRGLPFVDLAYIQKKDLNGNILTYHRRKTGRQITITVTKDAMNIIREYMDTTTESPYLFPILSAEGGEDTIYREYQQALRIFNYQLTKLGELLGLTTELTSYTARHTWATLAYYLEVHPGIIREAMGHSSIKVTETYLKPFNIKKLDETNLSIIGYAKRSFEG | not soluble
15 | MGSDKIHHHHHHMKEVKDFYDKWEPEDFPNYIKLLMNFADELIFEEISLLLKKFENKKDFLVLDCGCGFGAFYNLTKDFNTIYLDISLNLLKRFKLKERKICANILHLPFKDNTFDLVLCINVLEHVNYLKALNEIRRILKNKGKLIVVVVNKDSLIKEEIFNDFKIFHKPLSIKDFEIDGFKIVYSNSVYFLPSIFKISPPIILSKIIEYWKPVDKKLSKIFKNKGQFLIIEMVKE | not soluble
16 | GMVRYPLEPVLSIKKDRVDRAEKVVKEKRRLLELEQEKLRERESERDKVKNHYMQKIRQLREQLDDGTTSDAILKMKAYIKVVAIQLSEEEEKVNKQKENVLAASKELERAEVELTKRRKEEEKTRLHKEEWMKEALKEEARQEEKEQDEMGQLLHQLHKQKQRESGEN | soluble
17 | MGSDKIHHHHHHMYIDGVFSGGGVKGIALAGAYEVLEEKGFRFKRVAGTSAGAIIAAFIASGYTSKEIHALIEEVDGEKLLDQRYSFLPLKMLQWVSIYWRLGLYKGDTIEKWIADLLRAKGIRVFGDLQKGSLRLIASDLTNGTMIVLPDDLARYGLNPDMFPVARAVRMSCSIPYFFEPIKLKTDTGTATVVDGGVLSNFPIWLFSKERKRPVIGVTLAPRERERPKKNIRNAFELFGALFETMKDAHDARHIASRYEQNIIFLPVDDVMATDFHLTQQKKLALIELGKRRTELFLKQWTY | not soluble
18 | MSTGKIIQVIGAVIDVEFARDNTPKVYDALNVVEAGLVLEVQQQIGDGVVRTIAMGSSDGLRRGMEVKNTNAPISVPVGHGTLGRIMNVLGEPIDEAGPIEYTEKRSIHQAPPAYDELALSTEILETGIKVVDLICPFAKGGKVGLFGGAGVGKTVTMMELINNIAKEHSGYSVFAGVGERTREGNDFYYEMKDSNVLDKVSLVYGQMNEPPGNRLRVALSGLTIAEGFRDEKRDVLMFIDNIYRYTLAGTEVSALLGRMPSAVGYQPTLAAEMGALQERITSTKTGSITSVQAVYVPADDLTDPSPATTFSHLDATIVLSRQIAELGIYPAVDPLDSTSRQLDPLVVGQDHYETARAVQKVLQRYKELKDIIAILGMDELSDEDKKIVDRARKIQRFLSQPFHVAEVFTGNPGKFVSLKDTVASFKAIVNGEYDHLPEQAFYMVGSIQEAIEKAKTL | not soluble
19 | FLPTSREEMDQLGWDSCDVIIVTGDAYVDHPSFGMAIIGRLLEAQGFRVGIIAQPEWQTKDAFMTLGKPNLFFGVTAGNMDSMINRYTADKKIRHDDAYTPNNKGGMRPDRCSLVYSQRCREAYKDVPIVLGGIEASLRRVAHYDYWSDKVRRSILLDAKADILLFGNAERALVEVAHRLANGESINKMVDIRGTAVNLAQVPEHFKIIDSTRIDQPNKPFVPSNPYEVETQCATKGDEKEEAQPITIRPSRHDAKTTAVRLPSFEKLVNDRILYAHASRVLHLETNPYSGRALVQRHGDRELWVNQAPIPLTTEEMDFVFGLYYARVPHPKYGDAKIPAYDMIKTSVNIMRGCF | not soluble
20 | MITIITQDQLKTSPSVREDGRAFDELRPLKIEAGILERADGSSYLEFGGNKILVAVYGPREAQIRKLQRPDRAVIRCRYNMAPFSVEERKRPGPDRRSVEISKITAEALRPALILEKFPRSVIDVFIEVLEAEGGTRCAGITAASVALADAGIPMRDMVVACAAGKVGDQVVLDLSEEEDKEGQADVPVAILPRTREITLLQSDGNLTPEEFERALDLAVEGCLRIHEVQKEALRKRYGE | soluble
